What was measured:
Assay in all cases: ITC; H3K4me2 peptide injected (19 x 2 ul) into the protein; 25 °C; 25 mM Tris pH 8.0, 100 mM NaCl; iTC 200; one-site model
[1] = molecular target: free PHD finger of human Pygo1 (human)
[2] = molecular target: free PHD finger of human Pygo2 (human)
[3] = molecular target: PHD_(Pygo2)–HD1_(BCL9) complex (human) (UniProt Q9BRQ0)
[4] = molecular target: PHD_(Pygo1)–HD1_(BCL9) complex (6×His-tagged, PHD linked to HD1) (human) (UniProt Q9Y3Y4)
[5] = molecular target: PHD_(Pygo2)–HD1B9L complex with Pygo2 I344A (human) (UniProt Q9BRQ0)
[6] = molecular target: PHD_(Pygo2)–HD1B9L complex (6×His-tagged, PHD linked to HD1; ITC construct) (human) (UniProt Q9BRQ0)
[7] = molecular target: PHD_(Pygo2)–HD1B9L complex with Pygo2 W377F (human) (UniProt Q9BRQ0)
[8] = molecular target: PHD_(Pygo1)–HD1B9L complex (human) (UniProt Q9Y3Y4)

Kd [1]: 5.93 µM
stoichiometry N [1]: 1
Kd [2]: 4.95 µM
stoichiometry N [2]: 1
stoichiometry N [3]: 1
fold increase in affinity over free PHD (Pygo1) [4]: 2 fold
stoichiometry N [4]: 1
Kd [5]: 19.5 µM
Kd [6]: 1.83 µM
stoichiometry N [6]: 1
Kd [7]: 11.5 µM
stoichiometry N [8]: 1
Substance: 15-mer H3K4me2 histone tail peptide (histone H3 tail dimethylated at lysine 4)
